Patent US20240400708A1

Legend:
[1] = target: feline FcRn complex (FcRn-α subunit and β-microglobulin) (feline); test: SPR (Biacore), FcRn on SA chip, pH 6
[2] = target: feline FcRn complex (FcRn-α subunit and β-microglobulin) (feline); test: SPR (Biacore), FcRn on SA chip, pH 7.4
[3] = target: Feline FcRn complex (FcRn-alpha subunit and beta-microglobulin) (feline); test: SPR (Biacore), feline FcRn captured on SA chip, IgG flowed over, pH 6

Row | Binder | Kd [1] [nM] | Kd [2] [nM] | Kd [3] [nM]
1 | feline IgG1a mutant ID No. 367: S252Y, S434R, G402R (antibody, part only; not given: Variable domains, not shown: another chain or arm of the molecule) constant: ASTTAPSVFPLAPSCGTTSGATVALACLVLGYFPEPVTVSWNSGALTSGVHTFPAVLQASGLYSLSSMVTVPSSRWLSDTFTCNVAHPPSNTKVDKTVRKTDHPPGPKPCDCPKCPPPEMLGGPSIFIFPPKPKDTLYISRTPEVTCLVVDLGPDDSDVQITWFVDNTQVYTAKTSPREEQFNSTYRVVSVLPILHQDWLKGKEFKCKVNSKSLPSPIERTISKAKGQPHEPQVYVLPPAQEELSRNKVSVTCLIKSFHPPDIAVEWEITGQPEPENNYRTTPPQLDSDRTYFVYSKLSVDRSHWQRGNTYTCSVSHEALHRHHTQKSLTQSPGK | 0.885 | 44.8 | 
2 | feline IgG1a mutant ID No. 377: S252Y, S434R, T256M (antibody, part only; not given: Variable domains, not shown: another chain or arm of the molecule) constant: ASTTAPSVFPLAPSCGTTSGATVALACLVLGYFPEPVTVSWNSGALTSGVHTFPAVLQASGLYSLSSMVTVPSSRWLSDTFTCNVAHPPSNTKVDKTVRKTDHPPGPKPCDCPKCPPPEMLGGPSIFIFPPKPKDTLYISRMPEVTCLVVDLGPDDSDVQITWFVDNTQVYTAKTSPREEQFNSTYRVVSVLPILHQDWLKGKEFKCKVNSKSLPSPIERTISKAKGQPHEPQVYVLPPAQEELSRNKVSVTCLIKSFHPPDIAVEWEITGQPEPENNYRTTPPQLDSDGTYFVYSKLSVDRSHWQRGNTYTCSVSHEALHRHHTQKSLTQSPGK | 1.55 | 25.6 | 
3 | feline IgG1a mutant ID No. 370: S252Y, S434R, Q311H (antibody, part only; not given: variable domains and light chain, not shown: another chain or arm of the molecule) constant: ASTTAPSVFPLAPSCGTTSGATVALACLVLGYFPEPVTVSWNSGALTSGVHTFPAVLQASGLYSLSSMVTVPSSRWLSDTFTCNVAHPPSNTKVDKTVRKTDHPPGPKPCDCPKCPPPEMLGGPSIFIFPPKPKDTLYISRTPEVTCLVVDLGPDDSDVQITWFVDNTQVYTAKTSPREEQFNSTYRVVSVLPILHHDWLKGKEFKCKVNSKSLPSPIERTISKAKGQPHEPQVYVLPPAQEELSRNKVSVTCLIKSFHPPDIAVEWEITGQPEPENNYRTTPPQLDSDGTYFVYSKLSVDRSHWQRGNTYTCSVSHEALHRHHTQKSLTQSPGK | 0.974 | 31.3 | 
4 | feline IgG1a mutant ID No. 378: S252Y, S434R, T403R (antibody, part only; not given: Variable domains, not shown: another chain or arm of the molecule) constant: ASTTAPSVFPLAPSCGTTSGATVALACLVLGYFPEPVTVSWNSGALTSGVHTFPAVLQASGLYSLSSMVTVPSSRWLSDTFTCNVAHPPSNTKVDKTVRKTDHPPGPKPCDCPKCPPPEMLGGPSIFIFPPKPKDTLYISRTPEVTCLVVDLGPDDSDVQITWFVDNTQVYTAKTSPREEQFNSTYRVVSVLPILHQDWLKGKEFKCKVNSKSLPSPIERTISKAKGQPHEPQVYVLPPAQEELSRNKVSVTCLIKSFHPPDIAVEWEITGQPEPENNYRTTPPQLDSDGRYFVYSKLSVDRSHWQRGNTYTCSVSHEALHRHHTQKSLTQSPGK | 0.859 | 25.8 | 
5 | feline IgG1a mutant ID No. 373: S252Y, S434R, Q311R (antibody, part only; not given: Variable domains, not shown: another chain or arm of the molecule) constant: ASTTAPSVFPLAPSCGTTSGATVALACLVLGYFPEPVTVSWNSGALTSGVHTFPAVLQASGLYSLSSMVTVPSSRWLSDTFTCNVAHPPSNTKVDKTVRKTDHPPGPKPCDCPKCPPPEMLGGPSIFIFPPKPKDTLYISRTPEVTCLVVDLGPDDSDVQITWFVDNTQVYTAKTSPREEQFNSTYRVVSVLPILHRDWLKGKEFKCKVNSKSLPSPIERTISKAKGQPHEPQVYVLPPAQEELSRNKVSVTCLIKSFHPPDIAVEWEITGQPEPENNYRTTPPQLDSDGTYFVYSKLSVDRSHWQRGNTYTCSVSHEALHRHHTQKSLTQSPGK | 0.365 | 12.9 | 
6 | feline IgG1a Fc mutant S428L, S252F (antibody, part only; not given: Variable domains, not shown: another chain or arm of the molecule; small tags and cut ends) constant: ASTTAPSVFPLAPSCGTTSGATVALACLVLGYFPEPVTVSWNSGALTSGVHTFPAVLQASGLYSLSSMVTVPSSRWLSDTFTCNVAHPPSNTKVDKTVRKTDHPPGPKPCDCPKCPPPEMLGGPSIFIFPPKPKDTLFISRTPEVTCLVVDLGPDDSDVQITWFVDNTQVYTAKTSPREEQFNSTYRVVSVLPILHQDWLKGKEFKCKVNSKSLPSPIERTISKAKGQPHEPQVYVLPPAQEELSRNKVSVTCLIKSFHPPDIAVEWEITGQPEPENNYRTTPPQLDSDGTYFVYSKLSVDRSHWQRGNTYTCSVLHEALHSHHTQKSLTQSPGK |  |  | 6.52
7 | feline IgG1a mutant ID No. 375: S252Y, S434R, S254V (antibody, part only; not given: Variable domains, not shown: another chain or arm of the molecule) constant: ASTTAPSVFPLAPSCGTTSGATVALACLVLGYFPEPVTVSWNSGALTSGVHTFPAVLQASGLYSLSSMVTVPSSRWLSDTFTCNVAHPPSNTKVDKTVRKTDHPPGPKPCDCPKCPPPEMLGGPSIFIFPPKPKDTLYIVRTPEVTCLVVDLGPDDSDVQITWFVDNTQVYTAKTSPREEQFNSTYRVVSVLPILHQDWLKGKEFKCKVNSKSLPSPIERTISKAKGQPHEPQVYVLPPAQEELSRNKVSVTCLIKSFHPPDIAVEWEITGQPEPENNYRTTPPQLDSDGTYFVYSKLSVDRSHWQRGNTYTCSVSHEALHRHHTQKSLTQSPGK | 0.551 | 34.1 | 
8 | feline IgG1a mutant ID No. 374: S252Y, S434R, Q311Y (antibody, part only; not given: Variable domains, not shown: another chain or arm of the molecule) constant: ASTTAPSVFPLAPSCGTTSGATVALACLVLGYFPEPVTVSWNSGALTSGVHTFPAVLQASGLYSLSSMVTVPSSRWLSDTFTCNVAHPPSNTKVDKTVRKTDHPPGPKPCDCPKCPPPEMLGGPSIFIFPPKPKDTLYISRTPEVTCLVVDLGPDDSDVQITWFVDNTQVYTAKTSPREEQFNSTYRVVSVLPILHYDWLKGKEFKCKVNSKSLPSPIERTISKAKGQPHEPQVYVLPPAQEELSRNKVSVTCLIKSFHPPDIAVEWEITGQPEPENNYRTTPPQLDSDGTYFVYSKLSVDRSHWQRGNTYTCSVSHEALHRHHTQKSLTQSPGK | 0.715 | 30.3 | 
9 | feline IgG1a mutant ID No. 371: S252Y, S434R, Q311K (antibody, part only; not given: Variable domains, not shown: another chain or arm of the molecule) constant: ASTTAPSVFPLAPSCGTTSGATVALACLVLGYFPEPVTVSWNSGALTSGVHTFPAVLQASGLYSLSSMVTVPSSRWLSDTFTCNVAHPPSNTKVDKTVRKTDHPPGPKPCDCPKCPPPEMLGGPSIFIFPPKPKDTLYISRTPEVTCLVVDLGPDDSDVQITWFVDNTQVYTAKTSPREEQFNSTYRVVSVLPILHKDWLKGKEFKCKVNSKSLPSPIERTISKAKGQPHEPQVYVLPPAQEELSRNKVSVTCLIKSFHPPDIAVEWEITGQPEPENNYRTTPPQLDSDGTYFVYSKLSVDRSHWQRGNTYTCSVSHEALHRHHTQKSLTQSPGK | 0.488 | 10.7 | 
10 | feline IgG1a mutant ID No. 368: S252Y, S434R, L314K (antibody, part only; not given: Variable domains, not shown: another chain or arm of the molecule) constant: ASTTAPSVFPLAPSCGTTSGATVALACLVLGYFPEPVTVSWNSGALTSGVHTFPAVLQASGLYSLSSMVTVPSSRWLSDTFTCNVAHPPSNTKVDKTVRKTDHPPGPKPCDCPKCPPPEMLGGPSIFIFPPKPKDTLYISRTPEVTCLVVDLGPDDSDVQITWFVDNTQVYTAKTSPREEQFNSTYRVVSVLPILHQDWKKGKEFKCKVNSKSLPSPIERTISKAKGQPHEPQVYVLPPAQEELSRNKVSVTCLIKSFHPPDIAVEWEITGQPEPENNYRTTPPQLDSDGTYFVYSKLSVDRSHWQRGNTYTCSVSHEALHRHHTQKSLTQSPGK | 1.3 | 25.6 | 
11 | feline IgG1a Fc mutant S428L, S252Y (antibody, part only; not given: Variable domains, not shown: another chain or arm of the molecule) constant: ASTTAPSVFPLAPSCGTTSGATVALACLVLGYFPEPVTVSWNSGALTSGVHTFPAVLQASGLYSLSSMVTVPSSRWLSDTFTCNVAHPPSNTKVDKTVRKTDHPPGPKPCDCPKCPPPEMLGGPSIFIFPPKPKDTLYISRTPEVTCLVVDLGPDDSDVQITWFVDNTQVYTAKTSPREEQFNSTYRVVSVLPILHQDWLKGKEFKCKVNSKSLPSPIERTISKAKGQPHEPQVYVLPPAQEELSRNKVSVTCLIKSFHPPDIAVEWEITGQPEPENNYRTTPPQLDSDGTYFVYSKLSVDRSHWQRGNTYTCSVLHEALHSHHTQKSLTQSPGK |  |  | 4.88
12 | feline IgG1a mutant ID No. 376: S252Y, S434R, T250Q (antibody, part only; not given: Variable domains, not shown: another chain or arm of the molecule) constant: ASTTAPSVFPLAPSCGTTSGATVALACLVLGYFPEPVTVSWNSGALTSGVHTFPAVLQASGLYSLSSMVTVPSSRWLSDTFTCNVAHPPSNTKVDKTVRKTDHPPGPKPCDCPKCPPPEMLGGPSIFIFPPKPKDQLYISRTPEVTCLVVDLGPDDSDVQITWFVDNTQVYTAKTSPREEQFNSTYRVVSVLPILHQDWLKGKEFKCKVNSKSLPSPIERTISKAKGQPHEPQVYVLPPAQEELSRNKVSVTCLIKSFHPPDIAVEWEITGQPEPENNYRTTPPQLDSDGTYFVYSKLSVDRSHWQRGNTYTCSVSHEALHRHHTQKSLTQSPGK | 0.394 | 24.6 | 
13 | feline IgG1a Fc mutant S428L, S252H (antibody, part only; not given: variable domains and light chain, not shown: another chain or arm of the molecule; small tags and cut ends) constant: ASTTAPSVFPLAPSCGTTSGATVALACLVLGYFPEPVTVSWNSGALTSGVHTFPAVLQASGLYSLSSMVTVPSSRWLSDTFTCNVAHPPSNTKVDKTVRKTDHPPGPKPCDCPKCPPPEMLGGPSIFIFPPKPKDTLHISRTPEVTCLVVDLGPDDSDVQITWFVDNTQVYTAKTSPREEQFNSTYRVVSVLPILHQDWLKGKEFKCKVNSKSLPSPIERTISKAKGQPHEPQVYVLPPAQEELSRNKVSVTCLIKSFHPPDIAVEWEITGQPEPENNYRTTPPQLDSDGTYFVYSKLSVDRSHWQRGNTYTCSVLHEALHSHHTQKSLTQSPGK |  |  | 5.94
14 | feline IgG1a mutant ID No. 369: S252Y, S434R, P247L (antibody, part only; not given: Variable domains, not shown: another chain or arm of the molecule) constant: ASTTAPSVFPLAPSCGTTSGATVALACLVLGYFPEPVTVSWNSGALTSGVHTFPAVLQASGLYSLSSMVTVPSSRWLSDTFTCNVAHPPSNTKVDKTVRKTDHPPGPKPCDCPKCPPPEMLGGPSIFIFPPKLKDTLYISRTPEVTCLVVDLGPDDSDVQITWFVDNTQVYTAKTSPREEQFNSTYRVVSVLPILHQDWLKGKEFKCKVNSKSLPSPIERTISKAKGQPHEPQVYVLPPAQEELSRNKVSVTCLIKSFHPPDIAVEWEITGQPEPENNYRTTPPQLDSDGTYFVYSKLSVDRSHWQRGNTYTCSVSHEALHRHHTQKSLTQSPGK | 0.442 | 26.5 | 
15 | feline IgG1a mutant ID No. 372: S252Y, S434R, Q311M (antibody, part only; not given: Variable domains, not shown: another chain or arm of the molecule) constant: ASTTAPSVFPLAPSCGTTSGATVALACLVLGYFPEPVTVSWNSGALTSGVHTFPAVLQASGLYSLSSMVTVPSSRWLSDTFTCNVAHPPSNTKVDKTVRKTDHPPGPKPCDCPKCPPPEMLGGPSIFIFPPKPKDTLYISRTPEVTCLVVDLGPDDSDVQITWFVDNTQVYTAKTSPREEQFNSTYRVVSVLPILHMDWLKGKEFKCKVNSKSLPSPIERTISKAKGQPHEPQVYVLPPAQEELSRNKVSVTCLIKSFHPPDIAVEWEITGQPEPENNYRTTPPQLDSDGTYFVYSKLSVDRSHWQRGNTYTCSVSHEALHRHHTQKSLTQSPGK | 0.443 | 21.9 | 
